Reference: US20090269320
Where a chain is given by its changes, count along the chain named.

Legend:
[1] = tested on: T1, rPEDF variant S114A
T1 sequence: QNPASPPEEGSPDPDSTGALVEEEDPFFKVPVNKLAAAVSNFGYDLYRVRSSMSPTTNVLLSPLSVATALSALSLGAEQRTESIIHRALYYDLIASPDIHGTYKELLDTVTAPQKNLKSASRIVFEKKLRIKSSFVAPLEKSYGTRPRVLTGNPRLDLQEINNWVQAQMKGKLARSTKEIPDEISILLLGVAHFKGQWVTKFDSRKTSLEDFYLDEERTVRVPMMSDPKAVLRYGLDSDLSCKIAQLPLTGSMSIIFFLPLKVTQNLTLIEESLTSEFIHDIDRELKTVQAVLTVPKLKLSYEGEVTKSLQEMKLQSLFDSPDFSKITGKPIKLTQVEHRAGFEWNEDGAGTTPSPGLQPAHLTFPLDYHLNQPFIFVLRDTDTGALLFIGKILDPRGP

[2] = tested on: T2, rPEDF double variant S24,114A
T2 sequence: T1 sequence with S5A

[3] = tested on: T3, recombinant PEDF (recombinant wild-type human pigment epithelium derived factor)
T3 sequence: T1 sequence with A95S

[4] = tested on: T4, rPEDF variant S114E
T4 sequence: T1 sequence with A95E

[5] = tested on: T5, rPEDF double variant S24,114E
T5 sequence: T1 sequence with S5E, A95E

[6] = tested on: T6, PEDF purified from human plasma
T6 sequence: T1 sequence with A95S

[7] = tested on: T7, rPEDF variant S24A
T7 sequence: T1 sequence with S5A, A95S

[8] = tested on: T8, rPEDF variant S24E
T8 sequence: T1 sequence with S5E, A95S

[9] = tested on: T9, rPEDF variant S227A
T9 sequence: T1 sequence with A95S, S208A

[10] = tested on: T10, rPEDF variant S227E
T10 sequence: T1 sequence with A95S, S208E

Substance | in vitro CK2 phosphorylation (autoradiography) [1] | in vitro CK2 phosphorylation (autoradiography) [2] | in vitro CK2 phosphorylation ([γ32P]-ATP, autoradiography) [3] | in vitro CK2 phosphorylation (autoradiography) [4] | in vitro CK2 phosphorylation (autoradiography) [5] | in vitro CK2 phosphorylation ([γ32P]-ATP, autoradiography) [6] | in vitro CK2 phosphorylation (autoradiography) [7] | in vitro CK2 phosphorylation (autoradiography) [8] | in vitro PKA phosphorylation (autoradiography) [9] | in vitro PKA phosphorylation (autoradiography) [10] | in vitro PKA phosphorylation ([γ32P]-ATP, heparin, autoradiography) [3] | in vitro PKA phosphorylation ([γ32P]-ATP, heparin, autoradiography) [6]
recombinant human CK2 (casein kinase 2) | The S114A variant significantly reduced CK2 phosphorylation | the double variant S24,114A almost completely abolished this phosphorylation | Both rPEDF and plPEDF were phosphorylated by CK2; CK2 phosphorylation of rPEDF was stronger than the phosphorylation of plPEDF | both S114E and S24,114E mutations significantly increased CK2 phosphorylation compared with CK2 phosphorylation of rPEDF | both S114E and S24,114E mutations significantly increased CK2 phosphorylation compared with CK2 phosphorylation of rPEDF | Both rPEDF and plPEDF were phosphorylated by CK2; CK2 phosphorylation of rPEDF was stronger than the phosphorylation of plPEDF | Mutation of S24A significantly reduced CK2 phosphorylation | the S24E mutation reduced phosphorylation only to a moderate extent |  |  |  | 
catalytic subunit of PKA |  |  |  |  |  |  |  |  | Mutation of Ser227 to Ala or to Glu completely abolished PKA phosphorylation | Mutation of Ser227 to Ala or to Glu completely abolished PKA phosphorylation | Both rPEDF and plPEDF were equally phosphorylated by PKA in the presence of heparin | Both rPEDF and plPEDF were equally phosphorylated by PKA in the presence of heparin
